The values below come from patent US20250164508A1, “G-PROTEIN COUPLED RECEPTOR ASSAY” (The Regents of the University of Michigan, priority 2022, published 2025).

Square brackets hold non-standard residues; d marks the D form. Ends that are not written are not given here. Cha = N[C@@H](CC1CCCCC1)C(=O)O

In assay [1] the target is MOR-SmBit (Mu-opioid receptor with SmBit attached to the C-terminus) (UniProt P35372). As to the kind of experiment: in-solution split NANOLUC complementation, co-expressed components, with and without loperamide.
Sequence of MOR-SmBit (Mu-opioid receptor with SmBit attached to the C-terminus) (P35372 1-400, tags or fused parts left off): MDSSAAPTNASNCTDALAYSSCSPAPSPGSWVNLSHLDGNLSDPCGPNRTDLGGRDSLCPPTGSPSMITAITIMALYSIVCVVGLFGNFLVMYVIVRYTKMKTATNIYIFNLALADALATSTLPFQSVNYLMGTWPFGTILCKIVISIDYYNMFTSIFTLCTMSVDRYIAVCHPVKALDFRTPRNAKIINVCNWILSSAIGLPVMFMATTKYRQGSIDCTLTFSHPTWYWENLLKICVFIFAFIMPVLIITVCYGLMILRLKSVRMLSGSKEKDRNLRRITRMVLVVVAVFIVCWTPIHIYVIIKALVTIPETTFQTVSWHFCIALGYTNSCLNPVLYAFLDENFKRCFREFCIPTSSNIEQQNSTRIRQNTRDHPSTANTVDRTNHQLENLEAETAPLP
For assay [2] the target is unchanged. The experiment in a line: in-solution split NANOLUC complementation, separately expressed components, with and without loperamide.
Assay [3] concerns the target β2-adrenergic Receptor (β2AR) (Homo sapiens, UniProt P07550). The experiment in a line: β2AR IGNiTR assay (β2AR-LgBiT cell lysate with SmBiT conformation-specific binder). As to conditions: SmBiT-Gs peptidomimetic fusion peptides with β2AR-LgBiT.
In assay [4] the target is Melanocortin-4 Receptor (MC4R) (Homo sapiens, UniProt P32245). The experiment in a line: MC4R IGNiTR assay. As to conditions: Gs fusion peptide 2 μM; drug 10 μM.
Sequence of Melanocortin-4 Receptor (MC4R) (P32245 whole entry, species assumed, the tested form may be a part): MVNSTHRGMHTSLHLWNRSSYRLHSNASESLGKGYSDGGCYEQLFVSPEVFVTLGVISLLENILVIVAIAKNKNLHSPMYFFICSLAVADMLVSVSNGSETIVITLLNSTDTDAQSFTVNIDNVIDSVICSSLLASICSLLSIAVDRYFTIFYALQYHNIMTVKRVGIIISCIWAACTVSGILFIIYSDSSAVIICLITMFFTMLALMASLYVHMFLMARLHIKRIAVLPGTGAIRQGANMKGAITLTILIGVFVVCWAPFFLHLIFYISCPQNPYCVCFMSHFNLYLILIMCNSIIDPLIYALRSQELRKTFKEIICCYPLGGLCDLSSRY
The target in assay [5] is T1, MOR (Homo sapiens, UniProt P35372).
T1 construct: made in house; host or cells: HEK293 adhesion cells (general method)
T1 sequence (P35372 whole entry): as the sequence (P35372 1-400, tags or fused parts left off) above
Format: biochemical. As to conditions: peptidomimetic 35 uM and 28 uM.

The target of assay [6] is μ-opioid receptor (μ-OR) (Homo sapiens, UniProt P35372). The experiment in a line: μ-OR IGNiTR assay with Gi fusion peptide.
Sequence of μ-opioid receptor (μ-OR) (P35372 whole entry, the tested form may be a part): as the sequence (P35372 1-400, tags or fused parts left off) above
Assay [7] concerns the target B2AR-SmBit (beta-2-adrenergic receptor fused to the SmBit fragment of split NANOLUC) (UniProt P07550). The experiment in a line: in-solution split NANOLUC complementation, detergent-extracted B2AR mixed with nanobody lysate, with and without isoproterenol.

“Nb39-LgBit (Nb39 attached to LgBit on the C-terminus) (VHH)”: the fold signal change between (+Lop) and (-Lop) came out at 3.8 fold in assay [1] and 3.2 fold in assay [2].

“VTGYRLFEEILGSFNDCRDIIQRMHLRQYE-{Cha}-L (VTGYRLFEEILGSFNDCRDIIQRMHLRQYE[Cha]L) [Gs fusion peptide]”: the “agonist-dependent DDR” value was “significant DDR” in assay [3] and “showed agonist-dependent DDR” in assay [3] (listed as peptide 2). Further, the DDR significance entry in assay [4] was “significant DDRs”.

For “VTGYRLFEEILGSKKKFDAVTDIIIKNNLKDCG[Cha]F [Gi fusion peptide]”, the “binding to the MOR protein” value in assay [5] is given as “successful binding”. For the same molecule, the DDR in assay [6] (2 μM peptide, 0.5× μ-OR-LgBiT lysate, around 10 minutes) is around 4. In assay [6] (Gi fusion peptide with μ-OR), the DDR significance result is “significant DDR”.

“VTGYRLFEEILGSKKKFN-C-SRD-C-IQRMHLRQYE-{Cha}-L [peptide 1]”: the “agonist-dependent DDR” value in assay [3] is “did not demonstrate agonist-dependence”.

B1: Nb80-LgBit (Nanobody 80 fused to LgBit) (VHH, from another filing)
VHH: QVQLQESGGGLVQAGGSLRLSCAASGSIFSINTMGWYRQAPGKQRELVAAIHSGGSTNYANSVKGRFTISRDNAANTVYLQMNSLKPEDTAVYYCNVKDYGAVLYEYDYWGQGTQVTVSS
In assay [7], B1 yielded a fold signal change between (+Iso) and (-Iso) of 1.9 fold.
